B1: ARM domain of APC (APCARM), residues 338 to 1010 (domain or fragment, Mus musculus, UniProt Q61315 338-1010, looked up)
chain: SQDSCISMRQSGCLPLLIQLLHGNDKDSVLLGNSRGSKEARARASAALHNIIHSQPDDKRGRREIRVLHLLEQIRAYCETCWEWQEAHEQGMDQDKNPMPAPVEHQICPAVCVLMKLSFDEEHRHAMNELGGLQAIAELLQVDCEMYGLTNDHYSVTLRRYAGMALTNLTFGDVANKATLCSMKGCMRALVAQLKSESEDLQQVIASVLRNLSWRADVNSKKTLREVGSVKALMECALEVKKESTLKSVLSALWNLSAHCTENKADICAVDGALAFLVGTLTYRSQTNTLAIIESGGGILRNVSSLIATNEDHRQILRENNCLQTLLQHLKSHSLTIVSNACGTLWNLSARNPKDQEALWDMGAVSMLKNLIHSKHKMIAMGSAAALRNLMANRPAKYKDANIMSPGSSLPSLHVRKQKALEAELDAQHLSETFDNIDNLSPKASHRSKQRHKQNLYGDYAFDANRHDDSRSDNFNTGNMTVLSPYLNTTVLPSSSSSRGSLDSSRSEKDRSLERERGIGLSAYHPTTENAGTSSKRGLQITTTAAQIAKVMEEVSAIHTSQDDRSSASTTEFHCVADDRSAARRSSASHTHSNTYNFTKSENSNRTCSMPYAKVEYKRSSNDSLNSVTSSDGYGKRGQMKPSVESYSEDDESKFCSYGQYPADLAHKIHSAN
notes: adenomatous polyposis coli (APC), Mus musculus, NCBI AAB59632.1, ARM domain residues 338 to 1010, without expression tags; also called APC ARM domain; source: E. coli BL21 (DE3), purified; E. coli lysate in the pull-down

What was measured:
Settings in all cases: both partners purified
[1] = target: T1, KIF3A/B/KAP3 cargo-binding domain complex (ABK), wild type (Mus musculus, UniProt P28741 481-701; Q61771 475-747; P70188-1 1-693); experiment: SPR; Biacore T200; APCARM immobilised on CM5 chip at around 200 RU by amine coupling; kinesin-2 complexes injected at 6.25 to 50 nM, 30 μl/min, 15°C; 20 mM Hepes pH 8.0, 150 mM NaCl, 1 mM dithiothreitol, 0.005% Tween 20; KD from Scatchard plot analysis
T1 construct: KIF3A, Mus musculus, NCBI NP_032469.2, C-terminal region residues 481 to 701 (ACT); KIF3B, Mus musculus, NCBI NP_032470.3, C-terminal region residues 475 to 747 (BCT); KAP3A, Mus musculus, NCBI NP_001292572.1, residues 1 to 693; The His tag is named on the complexes of the SPR experiment; also called ABK (WT); KIF3A/B tail/KAP3 complex; source: E. coli BL21 (DE3), reconstituted and purified (size …)

[2] = target: T2, KIF3B C-terminal region (BCT), residues 475 to 747 (Mus musculus, UniProt Q61771 475-747); experiment: cryo-EM structure; ABK complex (KIF3A 481-701, KIF3B 475-747, KAP3 1-693), 0.75 mg/ml, single-particle, two maps
T2 construct: KIF3B, Mus musculus, NCBI NP_032470.3, C-terminal region residues 475 to 747 (BCT), without expression tags; residues 580 to 675 are resolved; also called KIF3B tail; source: E. coli BL21 (DE3), coexpressed with the KIF3A tail from pETDuet-1, purified within the reconstituted complex
T2 sequence (looked up): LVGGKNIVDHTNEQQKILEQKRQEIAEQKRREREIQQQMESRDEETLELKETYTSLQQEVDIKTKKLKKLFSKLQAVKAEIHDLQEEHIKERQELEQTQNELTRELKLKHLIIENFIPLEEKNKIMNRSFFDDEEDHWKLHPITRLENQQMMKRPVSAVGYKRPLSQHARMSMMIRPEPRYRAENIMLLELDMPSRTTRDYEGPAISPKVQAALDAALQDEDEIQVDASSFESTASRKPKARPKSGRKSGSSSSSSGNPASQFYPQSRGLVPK

[3] = target: B1; experiment: cryo-EM structure; ABK-APCARM complex, 0.75 mg/ml and 0.375 mg/ml (tilted stage 30° and 40°), single-particle, merged datasets

T1 sequence (P70188 1-693, one chain of several): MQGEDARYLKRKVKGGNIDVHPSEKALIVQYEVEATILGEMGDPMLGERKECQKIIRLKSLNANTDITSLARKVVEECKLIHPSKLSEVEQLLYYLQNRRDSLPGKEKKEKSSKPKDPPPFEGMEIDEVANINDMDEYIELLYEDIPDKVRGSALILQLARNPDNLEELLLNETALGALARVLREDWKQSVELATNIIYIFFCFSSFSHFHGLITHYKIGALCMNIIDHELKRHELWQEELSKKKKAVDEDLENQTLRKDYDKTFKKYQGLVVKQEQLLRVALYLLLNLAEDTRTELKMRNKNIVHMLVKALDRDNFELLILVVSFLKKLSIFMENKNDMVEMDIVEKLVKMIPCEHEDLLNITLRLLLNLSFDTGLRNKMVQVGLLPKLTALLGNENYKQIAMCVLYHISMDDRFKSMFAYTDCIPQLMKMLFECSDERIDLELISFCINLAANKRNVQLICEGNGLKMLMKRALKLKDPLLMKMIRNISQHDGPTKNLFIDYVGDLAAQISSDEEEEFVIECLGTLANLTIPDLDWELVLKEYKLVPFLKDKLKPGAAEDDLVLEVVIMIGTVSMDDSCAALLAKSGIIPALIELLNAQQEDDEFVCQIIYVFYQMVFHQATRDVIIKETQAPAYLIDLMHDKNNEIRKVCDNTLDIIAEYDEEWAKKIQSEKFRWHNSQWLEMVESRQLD

Binder: B1
- Kd [1]: 34.7 ± 0.6 nM

B2: KIF3A C-terminal region (ACT), residues 481 to 701 (domain or fragment, Mus musculus, UniProt P28741 481-701, looked up)
chain: VIVGGVDLLAKAEEQEKLLEESNMELEERRRRAEQLRKELEEKEQERLDIEEKYTSLQEEAQGKTKKLKKVWTMLMAAKSEMADLQQEHQREIEGLLENIRQLSRELRLQMLIIDNFIPQDYQEMIENYVHWNEDIGEWQLKCVAYTGNNMRKQTPVPDKKERDPFEVDLSHVYLAYTEESLRQSLMKLERPRTSKGKARPKMGRRKRSAKPETVIDSLLQ
notes: KIF3A, Mus musculus, NCBI NP_032469.2, C-terminal region residues 481 to 701 (ACT); also called KIF3A tail; source: E. coli BL21 (DE3), coexpressed with the KIF3B tail from pETDuet-1, purified within the reconstituted complex
- binding result [2]: binds
- binding result [3]: binds

Reference: paper PMC12551710, “The hook-like adaptor and cargo-binding (HAC) domain in the kinesin-2 tail enables adaptor assembly and cargo recognition” (Science Advances, 2025)
